Results on 18 molecules are retold here after US12427188B2, “Pyocyanine demethylases and related phenazine degrading agents compositions, methods and systems for interfering with viability of bacteria” (priority 2020, dated 2025).

Residue numbers refer to the chain shown, from its start. Names may count otherwise.

A short description of series [1]: Protein yield of PodA variants purified from inclusion bodies of overexpression culture. Particulars: purified from inclusion bodies, per L of E. coli overexpression culture. The method, then:
Protein overproduction and purification of soluble and inclusion body fractions. Plasmids coding for proteins of interest were transformed into E. coli BL21 […]. […]. Cultures were grown at 37° C. with shaking to an optical density of 0.4 (OD600 nm) and plasmid expression was induced with IPTG (50 μM) and shaken overnight at 16° C. Cells were harvested by centrifugation at 5,000×g for 10 min in a Beckman Coulter Avanti J-20 XOI refrigerated centrifuge using a JLA-8.1000 rotor at 4° C. Cell pellets were stored at −80° C. until used.
For purification of PodA from inclusion bodies, the pellets remaining following lysis and centrifugation at 40,000×g were resuspended in 20 mL of detergent buffer [50 mM HEPES (pH 7.5) and 1% Triton-X (v/v)] using a Bio-gen PRO200 cell homogenizer (PRO Scientific). Sample was spun for 15 min at 40,000×g at 4° C. in a Beckman Coulter Avanti centrifuge with a JA-25.50 rotor. Supernatant was discarded and the remaining cell pellet was resuspended in 5 mL of buffer [50 mM HEPES (pH 7.5), 500 mM NaCl] using a cell homogenizer, supplemented with lysozyme (200 μg mL^−1), and incubated for 10 min. Volume was increased to 20 mL with HEPES (50 mM, pH 7) and sample was spun for 40,000×g at 4° C. for 15 min. Supernatant was discarded and pellet was homogenized in 10 mL of denaturing buffer 50 mM HEPES (pH 7.5), 500 mM NaCl, and 8M urea) and incubating rocking overnight. The sample was spun at for 40,000×g at 25° C. for 30 min and supernatant was incubated with 1 mL HisPur Ni-NTA resin (Thermo Fisher Scientific) on a rocking platform for 10 min. Beads were allowed to settle without shaking, supernatant was discarded, and resin was pipetted into glass gravity columns. Resin was washed with 15 mL of denaturing buffer, followed by an elution with denaturing buffer supplemented with imidazole (500 mM). Fractions were analyzed by SDS-PAGE and those containing protein were combined into SnakeSkin 3.5 K MWCO dialysis tubing (Thermo Fisher Scientific). Urea was slowly dialyzed out in HEPES (50 mM, pH 7.5) and NaCl (500 mM) by lowing urea concentrations by 1 M increments. Each step was dialyzed at RT for 30 min. Protein was dialyzed in HEPES (50 mM, pH 7.5), NaCl (500 mM), and imidazole (20 mM) overnight at 4° C. The following day, protein was cleaved for 3 h at 25° C. with TEV protease (1:50 mg:mg ratio of TEV to PodA). The sample was applied to a HisPur gravity column and cleaved protein in the flow thru was confirmed by SDS-PAGE. Cleaved PodA protein was then dialyzed for storage for 3 h at 4° C. in HEPES (50 mM pH 7.5), NaCl (250 mM) and finally in HEPES (50 mM, pH 7.5), NaCl (100 mM), and glycerol (20%, v/v). Protein concentration was established on a NanoDrop™ using the extinction coefficient and MW of each protein. Protein was drop frozen in LN2 and stored at −80° C. until use.

Series [2] can be described thus: Continuous spectrophotometric PYO demethylation assay (specific activity and kinetics of PodA). The format is biochemical. Particulars: for catalytic efficiency compared with PodA^WT: Michaelis-Menten kinetics, 3 μM protein. As to the method:
Specific activity and kinetics of PodA. To determine specific activity and kinetic parameters of PodA for PYO, a continuous spectrophotometric assay monitoring the absorbance of PYO (690 nm) was utilized. Briefly, assays were performed at 25° C. in 100 μL reaction volumes in 96-well plates and reactions were monitored at 690 nm over 10 min. Reaction mixtures contained Phosphate buffer (50 mM, pH 6.0), ethylene glycol (1%, v/v), protein (3 μM) and substrate (for specific activity, 100 μM, for kinetics, varying). Data were acquired using the SpectraMax® M3 Microplate Reader (Molecular Devices) using the Soft Max Pro software every 10 s over 10 min. Path lengths for each well were calculated using Soft Max Pro endpoint readings and slopes were corrected for path lengths of 1 cm.
Specific activity was calculated from the slope of the linear range of (ΔOD690 min^−1) using Beer's Law (A=εcl) with a path length of 1 cm and the molar extinction coefficient of PYO (4,130 M^−1 cm^−1). Equation was solved for c, giving specific activity in nmol min^−1 mg^−1 of PodA. For kinetic parameters, graphs of initial velocity (μM s^−1) versus substrate concentration (μM) were plotted using Prism v8 (GraphPad). The Michaelis-Menten kinetics model was used to determine Km and Vmax. The turnover number (kcat) was determined using the following equation: Vmax=kcat[E], where [E] was the concentration of PodA added. All spectrophotometric assays mentioned above were completed thrice, each in technical triplicate with a representative data set shown. Error bars represent standard deviation as calculated by Prism v8 (GraphPad). Standard deviation for kcat and Kcat KM^−1 was calculated using standard formulas for propagation of error.

Setting [3] is: pH 6, 1% ethylene glycol, PodA 3 μM, substrate PYO.

B1: PodA8: Designed PodA41-162 variant: A53N, I73R, A87V, T91V, A129V (protein)
chain: VTMTLDVKNDQVNKHDFGKPGMDVGDMDIFSDRLSVDGKQVGYDGGVCFFVNVTPDNPMTYCELTIHLDAGEIFARSLTPHTLAPFTMVITGGTGEYANSKGELTVSGVATPDEKYELKLTK
As to B1, the Yield in series [1] is recorded as 2.1 mg/L^−1. For the same molecule, the “catalytic efficiency compared with PodA^WT” value in series [2] is listed as “no change in catalytic efficiency”. Besides, the “PYO demethylation activity relative to wild type” value in series [2] (PYO 50 μM, PodA variants 3 μM) is “wild-type activity was maintained”.

B2: PodA9: Designed PodA41-162 variant: I73K, A87V, T91V, A129V, K141T (protein)
chain: B1 chain with N13A, R33K, K101T
B2: the Yield in series [1] was determined as 1.28 mg/L^−1.

B3: PodA6: Designed PodA41-162 variant: I73R, A87V, T91V, M99V, A129T (protein)
chain: B1 chain with N13A, M59V, V89T
As to B3, the Yield in series [1] is 4.4 mg/L^−1.

B4: PodA5: Designed PodA41-162 variant: I73L, A87I, M99V, A129V, K141T (protein)
chain: B1 chain with N13A, R33L, V47I, V51T, M59V, K101T
The molecule B4 yielded a Yield in series [1] of 9.9 mg/L^−1.

B5: PodA2: Designed PodA41-162 variant: I73T, A87V, T91V, M99V, A129V (protein)
chain: B1 chain with N13A, R33T, M59V
B5 yielded a Yield in series [1] of 16.1 mg/L^−1.

B6: PodA3: Designed PodA41-162 variant: I73K, A87V, T91V, M99V, A129V (protein)
chain: B1 chain with N13A, R33K, M59V
As for B6, in series [1], the Yield amounted to 9.45 mg/L^−1.

B7: PodA7: Designed PodA41-162 variant: I73L, A87I, T91V, M99T, A129V (protein)
chain: B1 chain with N13A, R33L, V47I, M59T
As to B7, the Yield in series [1] is 4.1 mg/L^−1.

B8: WT PodA30-162: Truncated wild-type pyocyanin demethylase PodA, residues 30-162, SEQ ID NO: 2 (protein)
chain: MDGRGGRSTTEPVTMTLDVKNDQVAKHDFGKPGMDVGDMDIFSDILSVDGKQVGYDGGACFFTNVTPDNPMTYCELTIHLDAGEIFARSLTPHTLAPFTMAITGGTGEYANSKGELTVSGVATPDEKYELKLTKAENLYFQ
modifications: Sybthetic Polypeptide
As for B8, the “pH of optimal activity” value in series [2] (buffers pH 5.5-10.0, PodA 3 μM, PYO 100 μM) amounted to 6. Besides, the “Effect of salts (NaCl and KCl) on activity” value in series [2] (cystic fibrosis sputum range, 66 mM Na+, 15 mM K+) is “did not inhibit or enhance”. Besides, the “Effect of higher glycerol concentrations on the activity increase” value in series [2] (glycerol 5 to 20%) is reported as “reversed this activity increase”. Besides, in series [2] (setting [3]), the Michaelis constant (Km) is 372 µM, the catalytic efficiency was 4.73±0.24×10^2 M^−1 s^−1 and the catalytic constant (kcat) turned out to be 0.176 ± 0.003 s⁻¹. Besides, in series [2] (pH 6, PodA 3 μM, PYO 100 μM), the “Effect of slight increase in viscosity (ethylene glycol or glycerol 1% v/v) on activity” value is “enhanced”. Moreover, the catalytic efficiency in series [2] (protein from soluble fraction) was 1.05±0.093×10^2 M^−1 s^−1. For the same molecule, the catalytic efficiency in series [2] (protein purified from inclusion bodies, denatured and refolded) is recorded as 1.14±0.25× 10^2 M^−1 s^−1.

B9: PodA1030-162: PodA10 of SEQ ID NO: 2: A24N, I44T, A58V, M70V, A100T (protein)
chain: B8 chain with A25N, I45T, A59V, M71V, A101T
modifications: Sybthetic Polypeptide
Turning to B9, the “catalytic efficiency compared with PodA^WT” value in series [2] is recorded as “slight increase in efficiency”.

B10: PodA830-162: PodA8 of SEQ ID NO: 2: A24N, I44R, A58V, T62V, A100V (protein)
chain: B8 chain with A25N, I45R, A59V, T63V, A101V
modifications: Sybthetic Polypeptide
On to B10, for which the “catalytic efficiency compared with PodA^WT” value in series [2] is on record as “no change”.

B11: PodA^D72A: PodA active site variant D72A (protein)
chain: MTGKTKPAIIGGVAITALAAAGLGVWLFTDGRGGRSTTEPVTMTLDVKNDQVAKHDFGKPGMDVGDMDIFSAILSVDGKQVGYDGGACFFTNVTPDNPMTYCELTIHLDAGEIFARSLTPHTLAPFTMAITGGTGEYANSKGELTVSGVATPDEKYELKLTK
Consider B11, for which, in series [2] (PodA 3 μM, PYO varying), the “Activity of active site variants compared to controls” value (shortened to “Activity … compared to controls”) is given as “did not have measurable activity”.

B12: PodA^Y156A: PodA active site variant Y156A (protein)
chain: B11 chain with A72D, Y156A
For the molecule B12, the “Activity … compared to controls” value in series [2] (PodA 3 μM, PYO varying) is reported as “did not have measurable activity”.

B13: PodA^D68A: PodA variant inhibiting product release, D68A (protein)
chain: B11 chain with D68A, A72D
In the case of B13, in series [2] (PodA 3 μM, PYO varying), the Michaelis-Menten behaviour entry was “maintained similar Michaelis-Menten trends for concentrations of PYO under 100 μM, after which Vmax leveled off”.

B14: PodA^E154A: PodA active site variant E154A, inactive (protein)
chain: B11 chain with A72D, E154A
For the molecule B14, the “Activity … compared to controls” value in series [2] (PodA 3 μM, PYO varying) was “did not have measurable activity”.

B15: PodA^H121A: PodA active site variant H121A (protein)
chain: B11 chain with A72D, H121A
Consider B15, for which, in series [2] (PodA 3 μM, PYO varying), the “Activity … compared to controls” value is given as “did not have measurable activity”.

B16: PodA^Y156F: PodA active site variant Y156F (protein)
chain: B11 chain with A72D, Y156F
Take B16: the “Activity … compared to controls” value in series [2] (PodA 3 μM, PYO varying) is on record as “did not have measurable activity”.

B17: PodA^H121R: PodA active site variant H121R (protein)
chain: B11 chain with A72D, H121R
Consider B17, for which, in series [2] (PodA 3 μM, PYO varying), the “Activity … compared to controls” value was “did not have measurable activity”.

B18: PodA^H121K: PodA active site variant H121K (protein)
chain: B11 chain with A72D, H121K
Take B18: in series [2] (PodA 3 μM, PYO varying), the “Activity … compared to controls” value is “did not have measurable activity”.

One may read the Km as the concentration of substrate that gives half-maximal velocity. The kcat is the number of substrate molecules converted per active site and unit of time at saturation.
